Results reported in article PMC11630572, “Discovery of Nanosota-9 as anti-Omicron nanobody therapeutic candidate” (PLOS Pathogens, 2024).

Experiments:
Test in all cases: SPR; Biacore S200; spike ectodomain immobilized on CM5 chip by chemical crosslinking; Nanosota-9-His injected at 8, 16, 32, 64, 128 nM; running buffer 10 mM HEPES, 150 mM NaCl, 0.05% Tween 20
Conditions in all cases: both partners purified
[1] = target: T1, recombinant spike ectodomain of SARS-CoV-2 Omicron subvariant BA.5 (SARS-CoV-2 Omicron BA.5, strain)
T1 construct: also called BA.5 spike ectodomain; BA.5 spike; not shown: His tag, C-terminal, kept

[2] = target: T2, recombinant spike ectodomain of SARS-CoV-2 Omicron subvariant XBB.1.5 (SARS-CoV-2 Omicron XBB.1.5, strain)
T2 construct: The same GISAID id is printed for XBB.1.5 and JN.1; also called XBB.1.5 spike ectodomain; XBB.1.5 spike; not shown: His tag, C-terminal, kept

[3] = target: T3, recombinant spike ectodomain of SARS-CoV-2 Omicron subvariant JN.1 (SARS-CoV-2 Omicron JN.1, strain)
T3 construct: The same GISAID id is printed for XBB.1.5 and JN.1; also called JN.1 spike ectodomain; JN.1 spike; not shown: His tag, C-terminal, kept

B1: His-tagged Nanosota-9 (Nanosota-9-His) (VHH)
VHH: QVQLQESGGGLVQPGGSLRLSCTASGIALHTHATGWFRQAPGKEREGVSCISSGDGTTYYEDSVEGRFTISRDNAKNTVYLQMNSLKLEDTAVYYCAADPGAVCHSGSYYYTDDDFYYRGQGTQVTVSS
notes: Nanosota-9 nanobody from an alpaca immunized with the BA.5 spike ectodomain; also called monomeric Nanosota-9; not shown: His tag, C-terminal, kept
Kd [1]: 0.078 nM | Kd [2]: 0.06 nM | Kd [3]: 29.4 nM
